From publication doi:10.1101/2025.01.11.632520, “A De Novo Design Strategy to Convert FAcD from Dimer to Active Monomer” (bioRxiv, 2025) come the findings set out here.

The series concerns the molecule itself. Description: native MS; proteins buffer-exchanged into 0.2 M ammonium acetate (pH 7); Q-Exactive Plus Orbitrap, collision voltage 20 V; room temperature; self-association (dimer vs monomer).

As a reminder, the stoichiometry N is the number of molecules, sites or subunits per partner or assembly.

B1: Fluoroacetate dehalogenase (FAcD), wild-type (enzyme, UniProt Q6NAM1 1-302, looked up)
chain: MPDLADLFPGFGSEWINTSSGRIFARVGGDGPPLLLLHGFPQTHVMWHRVAPKLAERFKVIVADLPGYGWSDMPESDEQHTPYTKRAMAKQLIEAMEQLGHVHFALAGHDRGARVSYRLALDSPGRLSKLAVLDILPTYEYWQRMNRAYALKIYHWSFLAQPAPLPENLLGGDPDFYVKAKLASWTRAGDLSAFDPRAVEHYRIAFADPMRRHVMCEDYRAGAYADFEHDKIDVEAGNKIPVPMLALWGASGIAQSAATPLDVWRKWASDVQGAPIESGHFLPEEAPDQTAEALVRFFSAAP
notes: Fluoroacetate dehalogenase (FAcD), gene Rpa1163, residues 1-302; His6-SUMO tag cleaved off by ULP1; Homodimer by native MS; also called WT; WT-Di; source: E. coli BL21(DE3), purified (nickel column, SEC); not shown: His6, N-terminal, cleaved; SUMO, N-terminal, cleaved
For the protein B1, the “stoichiometry N” value amounted to 2.
